The results in this text go back to US20130273143A1 (UNIVERSITY OF CINCINNATI, published 2013).

In the test the target is T1, Bcl-2 (mouse, UniProt P10417 1-236).
T1 construct: Endogenous protein from wild-type mouse heart homogenate
The experiment in a line: co-immunoprecipitation from WT mouse heart homogenate with anti-Hsp20 antibody, immunoblot with anti-Bcl-2. An excerpt: Mouse heart homogenates are immunoprecipitated with anti-Hsp20 (d) or anti-Bax antibodies (e). Proteins are separated on SDS-PAGE gels and probed with anti-Bax (d1) or anti-Hsp20 antibodies (e1). Then, membrane (d1) is stripped and re-probed with anti-Bcl-2(d2); subsequently, this membrane (d2) is re-stripped and re-probed with anti-Hsp20 (d3). Similarly, membrane (e1) is stripped and re-probed with anti-Bax antibodies (e2). […] Homogenates are obtained from pre-ischemic/reperfused (g and i) and post-ischemic/reperfused (h and j) WT and TG hearts that are subjected to occlusion of LAD artery for 30 minutes and reperfusion for 24 hours. Homogenates are extracted by use of a solubilization solution of 7 mol/L urea, 2 mol/L thiourea, 4% CHAPS, 20 mmol/L DTT, 20 mmol/L spermine, and 1 mmol/L PMSF. Extract is centrifuged (100 000 g, 1 hour, at 10° C.), and 500 μg from each preparation is separated by 2D electrophoresis, using isoelectric focusing strips (Immobiline Drystrips, 18 cm, pH 4 to 7). […]
Association of Hsp20 with Bax and Bcl-2 is studied using Dynabeads Protein G (Dynal Biotech) according to the manufacturer's instructions. […] Finally, the proteins are eluted off (using 0.1 mol/L citrate), and their identity is determined by immunoblotting.
In general terms: A western blot detects proteins with antibodies after separation by electrophoresis.

T1 sequence (P10417 whole entry): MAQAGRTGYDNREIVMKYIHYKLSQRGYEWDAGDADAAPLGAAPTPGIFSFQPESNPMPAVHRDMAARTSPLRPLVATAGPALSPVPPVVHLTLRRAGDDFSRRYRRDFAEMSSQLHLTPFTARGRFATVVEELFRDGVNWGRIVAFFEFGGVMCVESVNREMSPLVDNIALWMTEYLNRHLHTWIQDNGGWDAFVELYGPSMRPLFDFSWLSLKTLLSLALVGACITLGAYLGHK

B1: Heat-Shock Protein Hsp20 (other, mouse, UniProt Q5EBG6 1-162, looked up)
chain: MEIPVPVQPSWLRRASAPLPGFSAPGRLFDQRFGEGLLEAELASLCPAAIAPYYLRAPSVALPTAQVSTDSGYFSVLLDVKHFLPEEISVKVVDDHVEVHARHEERPDEHGFIAREFHRRYRLPPGVDPAAVTSALSPEGVLSIQATPASAQAQLPSPPAAK
notes: Endogenous protein from wild-type mouse heart homogenate, used in co-immunoprecipitation; also called mcHsp20
Take B1: the binding result is given as “no binding”.
